{"source": "patent US20080058636A1", "about": "“METHODS OF MYOCARDIAL IMAGING” (Epix Pharmaceuticals, Inc., priority 2005, published 2008)", "note": "Bridge positions count the residues as written; N and C are the ends. GdDTPA‑thiourea = GdT is GdDTPA-thiourea (Gd-DTPA chelate attached through a thiourea)"}
{"target": "human collagen type I (acid soluble, extracted from placenta, Sigma C7774) (human) (UniProt P02452)", "sequence (P02452 162-1218 limits assumed, chain 1 of 2)": "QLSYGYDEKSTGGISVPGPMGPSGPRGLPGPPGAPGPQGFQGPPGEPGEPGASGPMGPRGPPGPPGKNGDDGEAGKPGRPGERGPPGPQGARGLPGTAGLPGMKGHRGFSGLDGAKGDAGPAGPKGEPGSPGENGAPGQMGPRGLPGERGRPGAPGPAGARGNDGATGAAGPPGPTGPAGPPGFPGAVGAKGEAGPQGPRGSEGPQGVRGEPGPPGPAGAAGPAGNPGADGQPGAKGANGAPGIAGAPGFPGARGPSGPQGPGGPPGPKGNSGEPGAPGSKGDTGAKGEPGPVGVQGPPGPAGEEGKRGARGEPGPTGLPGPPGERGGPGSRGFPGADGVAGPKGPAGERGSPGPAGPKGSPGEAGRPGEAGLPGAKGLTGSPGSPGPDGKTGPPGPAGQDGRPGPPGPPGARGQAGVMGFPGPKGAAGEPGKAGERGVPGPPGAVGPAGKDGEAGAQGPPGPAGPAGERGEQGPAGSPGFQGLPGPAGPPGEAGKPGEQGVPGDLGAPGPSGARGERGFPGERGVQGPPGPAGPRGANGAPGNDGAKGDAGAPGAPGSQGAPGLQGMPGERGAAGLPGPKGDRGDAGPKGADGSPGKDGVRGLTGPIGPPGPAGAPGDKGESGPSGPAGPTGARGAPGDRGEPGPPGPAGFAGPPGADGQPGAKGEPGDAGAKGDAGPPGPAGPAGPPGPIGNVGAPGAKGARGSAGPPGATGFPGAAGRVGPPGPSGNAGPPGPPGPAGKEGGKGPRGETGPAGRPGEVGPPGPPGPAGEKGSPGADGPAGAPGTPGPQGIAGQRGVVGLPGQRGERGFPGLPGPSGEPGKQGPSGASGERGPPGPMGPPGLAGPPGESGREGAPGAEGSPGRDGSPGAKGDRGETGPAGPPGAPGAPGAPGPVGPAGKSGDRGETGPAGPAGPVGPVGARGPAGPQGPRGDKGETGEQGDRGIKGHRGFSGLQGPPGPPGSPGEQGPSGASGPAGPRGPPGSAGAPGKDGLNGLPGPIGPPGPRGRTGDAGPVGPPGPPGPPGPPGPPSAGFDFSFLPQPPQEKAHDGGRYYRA", "sequence (P08123 80-1119 limits assumed, chain 2 of 2, further chain)": "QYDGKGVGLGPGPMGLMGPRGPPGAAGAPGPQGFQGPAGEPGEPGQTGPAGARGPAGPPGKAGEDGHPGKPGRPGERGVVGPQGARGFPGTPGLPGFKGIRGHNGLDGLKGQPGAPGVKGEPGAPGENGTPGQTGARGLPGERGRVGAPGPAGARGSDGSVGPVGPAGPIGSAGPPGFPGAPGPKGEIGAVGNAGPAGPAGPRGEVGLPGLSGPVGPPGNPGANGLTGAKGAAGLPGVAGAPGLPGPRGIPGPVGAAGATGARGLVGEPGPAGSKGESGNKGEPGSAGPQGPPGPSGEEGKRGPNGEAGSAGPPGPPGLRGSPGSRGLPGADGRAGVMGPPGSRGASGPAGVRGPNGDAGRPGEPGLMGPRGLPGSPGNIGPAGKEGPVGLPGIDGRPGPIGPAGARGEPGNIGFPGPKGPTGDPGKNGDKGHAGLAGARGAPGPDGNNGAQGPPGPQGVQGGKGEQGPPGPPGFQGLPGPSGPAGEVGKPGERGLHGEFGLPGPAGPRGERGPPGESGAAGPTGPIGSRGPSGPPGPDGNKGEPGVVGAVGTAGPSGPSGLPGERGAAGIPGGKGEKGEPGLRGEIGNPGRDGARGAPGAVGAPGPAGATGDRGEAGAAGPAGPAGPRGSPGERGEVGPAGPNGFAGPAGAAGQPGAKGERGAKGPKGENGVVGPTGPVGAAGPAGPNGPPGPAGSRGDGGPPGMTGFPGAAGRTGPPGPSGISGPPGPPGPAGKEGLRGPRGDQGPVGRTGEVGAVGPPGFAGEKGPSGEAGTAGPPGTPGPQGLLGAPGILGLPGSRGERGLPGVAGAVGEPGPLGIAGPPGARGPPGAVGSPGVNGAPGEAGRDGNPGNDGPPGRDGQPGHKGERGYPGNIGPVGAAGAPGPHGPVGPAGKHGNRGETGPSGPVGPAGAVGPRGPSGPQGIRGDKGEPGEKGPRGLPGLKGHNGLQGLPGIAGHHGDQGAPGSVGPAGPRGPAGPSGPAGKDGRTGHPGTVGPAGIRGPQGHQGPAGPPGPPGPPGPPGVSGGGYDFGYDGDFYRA", "experiment": "dried collagen assay, 5 uM each", "units": {"Human binding": "%"}}
{"binder": "{GdDTPA‑thiourea}-GQWHCTTRFPHHYCLYGK(GdDTPA‑thiourea)-NH2 (disulfide 5-14)", "note": "[Compound ID 807]", "Human binding": 48}
{"binder": "DWTCSLDEYTWHCNYE", "note": "[Compound ID 847]", "Human binding": 16}
{"binder": "GQWTCSGDAYTWHCAYE", "note": "[Compound ID 820]", "Human binding": 60}
{"binder": "DWTCSADEYTWHCNYE", "note": "[Compound ID 835]", "Human binding": 17}
{"binder": "GQWTCYGDEYTWYCNYE", "note": "[Compound ID 826]", "Human binding": 87}
{"binder": "PWTCSGDEYAWHCNYE", "note": "[Compound ID 824]", "Human binding": 12}
{"binder": "DWTCSGDEYYWHCNYE", "note": "[Compound ID 834]", "Human binding": 22}
{"binder": "DWTCSSDEYTWHCNYE", "note": "[Compound ID 836]", "Human binding": 13}
{"binder": "KKWHCYTYFPHHYCLYG", "note": "[Compound ID 802]", "Human binding": 57}
{"binder": "GQWTCSGDAYTWHCNYE", "note": "[Compound ID 838]", "Human binding": 70}
{"binder": "DWTCSGDEYRWHCNYE", "note": "[Compound ID 845]", "Human binding": 36}
{"binder": "GQWACSGDEYTWHCNYE", "note": "[Compound ID 840]", "Human binding": 15}
{"binder": "DWTCSYDEYTWHCNYE", "note": "[Compound ID 829]", "Human binding": 20}
{"binder": "DWTCSGDEYTWYCNYE", "note": "[Compound ID 842]", "Human binding": 23}
{"binder": "GQWTCSGDEYTWHCNYA", "note": "[Compound ID 841]", "Human binding": 51}
{"binder": "GQWTCSGDEYTWHCAYE", "note": "[Compound ID 839]", "Human binding": 30}
{"binder": "DWTCSRDEYTWHCNYE", "note": "[Compound ID 821]", "Human binding": 56}
{"binder": "GAWTCSGDEYTWHCNYE", "note": "[Compound ID 830]", "Human binding": 26}
{"binder": "GQWTCSGDEYTWHCNY", "note": "[Compound ID 823]", "Human binding": 53}
{"binder": "DWTCRGDEYTWHCNYE", "note": "[Compound ID 822]", "Human binding": 47}
{"binder": "GQWHCTTRFPHHYCKYG", "note": "[Compound ID 815]", "Human binding": 66}
{"binder": "GQWTCSGDEYTWACNYE", "note": "[Compound ID 833]", "Human binding": 13}
{"binder": "GQWTCSGDEYAWHCNYE", "note": "[Compound ID 832]", "Human binding": 12}
{"target": "rat collagen (acid soluble, type I, rat tail, Upstate 08-115) (rat) (UniProt P02454)", "sequence (P02454 152-1207, chain 1 of 2)": "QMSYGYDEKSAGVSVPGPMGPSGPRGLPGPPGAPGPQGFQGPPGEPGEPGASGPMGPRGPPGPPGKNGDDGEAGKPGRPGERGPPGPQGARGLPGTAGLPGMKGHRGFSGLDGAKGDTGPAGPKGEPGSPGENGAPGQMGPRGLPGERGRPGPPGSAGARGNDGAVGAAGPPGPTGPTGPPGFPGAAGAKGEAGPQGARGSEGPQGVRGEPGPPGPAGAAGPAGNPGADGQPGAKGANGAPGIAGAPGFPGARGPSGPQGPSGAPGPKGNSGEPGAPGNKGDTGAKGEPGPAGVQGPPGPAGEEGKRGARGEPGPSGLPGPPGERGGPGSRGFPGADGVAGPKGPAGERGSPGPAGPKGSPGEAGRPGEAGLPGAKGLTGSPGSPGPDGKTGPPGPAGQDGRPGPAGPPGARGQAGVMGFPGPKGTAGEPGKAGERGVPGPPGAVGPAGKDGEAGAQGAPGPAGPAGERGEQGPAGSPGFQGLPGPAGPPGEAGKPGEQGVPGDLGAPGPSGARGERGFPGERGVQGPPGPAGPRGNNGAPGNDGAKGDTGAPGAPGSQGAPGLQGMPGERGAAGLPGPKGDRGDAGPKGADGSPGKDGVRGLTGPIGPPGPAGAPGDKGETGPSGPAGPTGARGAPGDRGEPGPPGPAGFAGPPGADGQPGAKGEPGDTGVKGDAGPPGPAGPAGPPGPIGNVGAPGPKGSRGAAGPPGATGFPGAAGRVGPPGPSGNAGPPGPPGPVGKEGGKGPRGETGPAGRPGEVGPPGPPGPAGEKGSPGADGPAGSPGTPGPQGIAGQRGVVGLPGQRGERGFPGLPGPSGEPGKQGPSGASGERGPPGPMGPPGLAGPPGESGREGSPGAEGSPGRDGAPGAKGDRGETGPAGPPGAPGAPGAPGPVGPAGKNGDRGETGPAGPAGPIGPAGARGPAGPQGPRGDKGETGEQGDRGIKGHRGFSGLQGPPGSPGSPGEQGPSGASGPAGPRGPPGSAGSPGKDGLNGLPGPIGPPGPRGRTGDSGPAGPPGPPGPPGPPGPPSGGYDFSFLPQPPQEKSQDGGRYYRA", "sequence (P02466 86-1125, chain 2 of 2, further chain)": "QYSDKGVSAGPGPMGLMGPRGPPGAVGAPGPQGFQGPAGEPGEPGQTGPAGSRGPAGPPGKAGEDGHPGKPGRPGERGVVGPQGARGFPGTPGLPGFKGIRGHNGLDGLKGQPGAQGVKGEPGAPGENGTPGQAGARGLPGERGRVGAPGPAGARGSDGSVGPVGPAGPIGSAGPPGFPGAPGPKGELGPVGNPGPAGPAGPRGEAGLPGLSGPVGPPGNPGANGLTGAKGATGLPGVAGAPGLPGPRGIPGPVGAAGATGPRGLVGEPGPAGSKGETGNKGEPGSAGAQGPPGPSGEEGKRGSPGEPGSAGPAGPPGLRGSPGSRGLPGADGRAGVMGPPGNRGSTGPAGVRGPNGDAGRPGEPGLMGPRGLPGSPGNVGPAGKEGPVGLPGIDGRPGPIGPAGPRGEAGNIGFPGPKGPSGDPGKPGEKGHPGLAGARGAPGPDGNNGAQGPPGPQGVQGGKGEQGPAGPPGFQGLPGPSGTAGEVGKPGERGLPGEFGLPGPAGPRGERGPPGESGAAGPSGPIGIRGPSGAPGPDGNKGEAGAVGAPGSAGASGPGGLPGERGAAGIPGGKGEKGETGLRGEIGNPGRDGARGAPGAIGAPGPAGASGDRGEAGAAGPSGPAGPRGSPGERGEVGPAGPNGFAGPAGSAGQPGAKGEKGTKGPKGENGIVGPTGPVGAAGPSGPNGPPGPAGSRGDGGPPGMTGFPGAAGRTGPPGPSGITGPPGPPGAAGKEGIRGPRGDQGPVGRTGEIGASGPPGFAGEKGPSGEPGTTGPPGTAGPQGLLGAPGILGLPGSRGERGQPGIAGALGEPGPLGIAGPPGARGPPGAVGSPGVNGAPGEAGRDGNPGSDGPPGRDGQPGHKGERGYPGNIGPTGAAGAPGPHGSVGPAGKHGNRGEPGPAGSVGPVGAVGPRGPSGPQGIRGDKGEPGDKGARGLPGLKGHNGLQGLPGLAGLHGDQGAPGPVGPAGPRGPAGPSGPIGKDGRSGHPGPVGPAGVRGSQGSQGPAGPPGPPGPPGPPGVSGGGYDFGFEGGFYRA", "experiment": "dried collagen assay, 5 uM each", "units": {"Rat binding": "%"}}
{"binder": "{GdDTPA‑thiourea}-GQWHCTTRFPHHYCLYGK(GdDTPA‑thiourea)-NH2 (disulfide 5-14)", "note": "[Compound ID 807]", "Rat binding": 45}
{"binder": "DWTCSLDEYTWHCNYE", "note": "[Compound ID 847]", "Rat binding": 7}
{"binder": "GQWTCSGDAYTWHCAYE", "note": "[Compound ID 820]", "Rat binding": 29}
{"binder": "DWTCSADEYTWHCNYE", "note": "[Compound ID 835]", "Rat binding": 9}
{"binder": "GQWTCYGDEYTWYCNYE", "note": "[Compound ID 826]", "Rat binding": 71}
{"binder": "PWTCSGDEYAWHCNYE", "note": "[Compound ID 824]", "Rat binding": 0}
{"binder": "DWTCSGDEYYWHCNYE", "note": "[Compound ID 834]", "Rat binding": 9}
{"binder": "DWTCSSDEYTWHCNYE", "note": "[Compound ID 836]", "Rat binding": 8}
{"binder": "KKWHCYTYFPHHYCLYG", "note": "[Compound ID 802]", "Rat binding": 45}
{"binder": "GQWTCSGDAYTWHCNYE", "note": "[Compound ID 838]", "Rat binding": 61}
{"binder": "DWTCSGDEYRWHCNYE", "note": "[Compound ID 845]", "Rat binding": 10}
{"binder": "GQWACSGDEYTWHCNYE", "note": "[Compound ID 840]", "Rat binding": 3}
{"binder": "DWTCSYDEYTWHCNYE", "note": "[Compound ID 829]", "Rat binding": 21}
{"binder": "DWTCSGDEYTWYCNYE", "note": "[Compound ID 842]", "Rat binding": 9}
{"binder": "GQWTCSGDEYTWHCNYA", "note": "[Compound ID 841]", "Rat binding": 28}
{"binder": "GQWTCSGDEYTWHCAYE", "note": "[Compound ID 839]", "Rat binding": 11}
{"binder": "DWTCSRDEYTWHCNYE", "note": "[Compound ID 821]", "Rat binding": 29}
{"binder": "GAWTCSGDEYTWHCNYE", "note": "[Compound ID 830]", "Rat binding": 11}
{"binder": "GQWTCSGDEYTWHCNY", "note": "[Compound ID 823]", "Rat binding": 28}
{"binder": "DWTCRGDEYTWHCNYE", "note": "[Compound ID 822]", "Rat binding": 20}
{"binder": "GQWHCTTRFPHHYCKYG", "note": "[Compound ID 815]", "Rat binding": 59}
{"binder": "GQWTCSGDEYTWACNYE", "note": "[Compound ID 833]", "Rat binding": 4}
{"binder": "GQWTCSGDEYAWHCNYE", "note": "[Compound ID 832]", "Rat binding": 4}
